The supplement of paper PMC10567573

B1: SPACA3 (parent)
chain: FTSGFNAAALDYEADGSTNNGIFQ
B2: CPXM2 (parent)
chain: EILGCPLPDPNNYYHRRNEMTTTD
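Also: lentivirally expressed fusions sorted by FACS into six bins by GFP to DsRed ratio, PSI derived from sequencing read proportions per bin multiplied by bin number.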

Variants of: B1
Assay: protein stability index of a GFP-peptide fusion (GPS, HEK-293T) (PSI 1-6); higher = more stable
Details: c terminus: a fixed tail appended
Variant DTSGFNAAALDYEADGSTNNGIFQ [F1D] has a protein stability index of 5.15.
Work on CTSGFNAAALDYEADGSTNNGIFQ [F1C] yielded a protein stability index of 3.44.
In the case of ATSGFNAAALDYEADGSTNNGIFQ [F1A], the protein stability index is reported as 4.21.

Variants of: B2
Assay: as above
Details: c terminus: a fixed tail appended
Variant EILGCPLPDPNNYYHRRNEMYTTD [T21Y] has a protein stability index of 2.81.
In the case of EILGCPLPDPNNYYHRRNEMGTTD [T21G], the protein stability index is reported as 3.55.
For EILGCPLPDPNNYYHRRNEMDTTD [T21D], the protein stability index was 4.25.
For EILGCPLPDPNNYYHRRNEMRTTD [T21R], the protein stability index was 3.05.
EILGCPLPDPNNYYHRRNEMCTTD [T21C] showed a protein stability index of 2.92.
In the case of EILGCPLPDPNNYYHRRNEMITTD [T21I], the protein stability index is reported as 2.77.
In the case of EILGCPLPDPNNYYHRRNEMLTTD [T21L], the protein stability index is reported as 2.97.
Variant EILGCPLPDPNNYRHRRNEMTTTD [Y14R] has a protein stability index of 3.92.
Work on EILGCPLPDPNNYFHRRNEMTTTD [Y14F] yielded a protein stability index of 3.69.
With EILGCPLPDPNNYMHRRNEMTTTD [Y14M] the protein stability index was 3.57.
For EILGCPLPDPNNYVHRRNEMTTTD [Y14V], the protein stability index was 3.81.
EILGCPLPDPNNYAHRRNEMTTTD [Y14A] showed a protein stability index of 4.18.
For EILGCPLPDPNNYTHRRNEMTTTD [Y14T], the protein stability index was 4.29.
EIYGCPLPDPNNYYHRRNEMTTTD [L3Y] showed a protein stability index of 3.7.
In the case of EIHGCPLPDPNNYYHRRNEMTTTD [L3H], the protein stability index is reported as 4.16.
In the case of EIQGCPLPDPNNYYHRRNEMTTTD [L3Q], the protein stability index is reported as 4.13.
With EIPGCPLPDPNNYYHRRNEMTTTD [L3P] the protein stability index was 4.7.
With EIWGCPLPDPNNYYHRRNEMTTTD [L3W] the protein stability index was 3.84.
With EIEGCPLPDPNNYYHRRNEMTTTD [L3E] the protein stability index was 4.39.
EIVGCPLPDPNNYYHRRNEMTTTD [L3V] showed a protein stability index of 3.85.
EINGCPLPDPNNYYHRRNEMTTTD [L3N] showed a protein stability index of 3.78.
Variant EIAGCPLPDPNNYYHRRNEMTTTD [L3A] has a protein stability index of 4.09.
With EIIGCPLPDPNNYYHRRNEMTTTD [L3I] the protein stability index was 3.58.
Work on ERLGCPLPDPNNYYHRRNEMTTTD [I2R] yielded a protein stability index of 4.28.
ETLGCPLPDPNNYYHRRNEMTTTD [I2T] gave a protein stability index of 4.32.
With EDLGCPLPDPNNYYHRRNEMTTTD [I2D] the protein stability index was 4.86.
Work on EQLGCPLPDPNNYYHRRNEMTTTD [I2Q] yielded a protein stability index of 4.76.
With EVLGCPLPDPNNYYHRRNEMTTTD [I2V] the protein stability index was 3.79.
With EFLGCPLPDPNNYYHRRNEMTTTD [I2F] the protein stability index was 3.75.
In the case of EWLGCPLPDPNNYYHRRNEMTTTD [I2W], the protein stability index is reported as 3.82.
Variant ECLGCPLPDPNNYYHRRNEMTTTD [I2C] has a protein stability index of 3.98.
EILGCPLPDPNNYYHRRNESTTTD [M20S] showed a protein stability index of 3.98.
EILGCPLPDPNNYYHRRNEFTTTD [M20F] gave a protein stability index of 2.98.
EILGCPLPDPNNYYHRRNENTTTD [M20N] gave a protein stability index of 3.92.
In the case of EILGCPLPDPNNYYHRRNEQTTTD [M20Q], the protein stability index is reported as 4.42.
With EILGCPLPDPNNYYHRRNETTTTD [M20T] the protein stability index was 4.6.
In the case of EILGCPLPDPNNYYHRRNEITTTD [M20I], the protein stability index is reported as 3.69.
Variant EILGCPLPDPNNYYHRRNEHTTTD [M20H] has a protein stability index of 3.69.
Variant EILGCPLPDPNNYYHRRNEGTTTD [M20G] has a protein stability index of 4.6.
EILGCPLPDPNNYYHRRNEETTTD [M20E] gave a protein stability index of 4.59.
With EILGCPLPDPNNYYHRRNEATTTD [M20A] the protein stability index was 3.99.
EILGCPLPDPNNYYHRRNEMTNTD [T22N] gave a protein stability index of 3.47.
In the case of EILGCPLPDPNNYYHRRNEMTATD [T22A], the protein stability index is reported as 3.15.
In the case of EILGCPLPDPNNYYHRRNEMTETD [T22E], the protein stability index is reported as 4.39.
In the case of EILGCPLPDPNNYYHRRNEMTKTD [T22K], the protein stability index is reported as 3.54.
EILGCPLPDPNNYYHRRNEMTSTD [T22S] gave a protein stability index of 3.48.
For EILGCPLPDPNNYYHRRNEMTDTD [T22D], the protein stability index was 4.09.
With EILGCPLPDPNNYYHRRNEMTGTD [T22G] the protein stability index was 3.56.
Variant EILGCPLPDPNNYYHRRNEMTVTD [T22V] has a protein stability index of 3.38.
EILGCPLPDPNNYYFRRNEMTTTD [H15F] showed a protein stability index of 3.33.
In the case of EILGCPLPDPNNYYNRRNEMTTTD [H15N], the protein stability index is reported as 3.68.
Variant EILGCPLPDPNNYYPRRNEMTTTD [H15P] has a protein stability index of 3.64.
EILGCPLPDPNNYYARRNEMTTTD [H15A] gave a protein stability index of 3.71.
EILGCPLPDPNNYYWRRNEMTTTD [H15W] showed a protein stability index of 2.91.
Variant EILGCPLPDPNNYYYRRNEMTTTD [H15Y] has a protein stability index of 3.16.
Work on EILGCPLPDPNNYYGRRNEMTTTD [H15G] yielded a protein stability index of 3.88.
Variant EILGCPLPDPNNYYTRRNEMTTTD [H15T] has a protein stability index of 3.76.
With EILGCPLPDPNNYYKRRNEMTTTD [H15K] the protein stability index was 3.76.
In the case of EILGCPLPDPNNYYHRRNEMTTTT [D24T], the protein stability index is reported as 2.82.
EILGCPLPDPNNYYHRRNEMTTTF [D24F] gave a protein stability index of 1.47.
In the case of EILGCPLPDPNNYYHRRNEMTTTG [D24G], the protein stability index is reported as 2.76.
With EILGCPLPDPNNYYHRRNEMTTTK [D24K] the protein stability index was 3.65.
EILGCPLPDPNNYYHRRNEMTTTQ [D24Q] showed a protein stability index of 2.91.
EILGCPLPDPNNYYHRRNEMTTTP [D24P] showed a protein stability index of 2.49.
For HILGCPLPDPNNYYHRRNEMTTTD [E1H], the protein stability index was 3.16.
SILGCPLPDPNNYYHRRNEMTTTD [E1S] showed a protein stability index of 3.54.
IILGCPLPDPNNYYHRRNEMTTTD [E1I] showed a protein stability index of 2.52.
With VILGCPLPDPNNYYHRRNEMTTTD [E1V] the protein stability index was 2.4.
Work on NILGCPLPDPNNYYHRRNEMTTTD [E1N] yielded a protein stability index of 3.42.
GILGCPLPDPNNYYHRRNEMTTTD [E1G] gave a protein stability index of 3.58.
Work on FILGCPLPDPNNYYHRRNEMTTTD [E1F] yielded a protein stability index of 1.83.
Work on CILGCPLPDPNNYYHRRNEMTTTD [E1C] yielded a protein stability index of 2.83.
QILGCPLPDPNNYYHRRNEMTTTD [E1Q] gave a protein stability index of 3.02.
Variant PILGCPLPDPNNYYHRRNEMTTTD [E1P] has a protein stability index of 4.63.
Variant EILGCPLADPNNYYHRRNEMTTTD [P8A] has a protein stability index of 2.9.
Variant EILGCPLKDPNNYYHRRNEMTTTD [P8K] has a protein stability index of 3.58.
Variant EILGCPLWDPNNYYHRRNEMTTTD [P8W] has a protein stability index of 2.62.
For EILGCPLTDPNNYYHRRNEMTTTD [P8T], the protein stability index was 3.12.
In the case of EILGCPLNDPNNYYHRRNEMTTTD [P8N], the protein stability index is reported as 3.31.
EILGCPLEDPNNYYHRRNEMTTTD [P8E] showed a protein stability index of 3.88.
Work on EILGCPLPDPNNYYHRFNEMTTTD [R17F] yielded a protein stability index of 2.48.
Variant EILGCPLPDPNNYYHRDNEMTTTD [R17D] has a protein stability index of 4.64.
Variant EILGCPLPDPNNYYHRENEMTTTD [R17E] has a protein stability index of 4.43.
EILGCPLPDPNNYYHRVNEMTTTD [R17V] gave a protein stability index of 3.22.
Work on EILGCPLPDPNNYYHRQNEMTTTD [R17Q] yielded a protein stability index of 4.02.
In the case of EILGCPLPDPNNYYHRTNEMTTTD [R17T], the protein stability index is reported as 4.19.
For EILGCPLPDPNNYYHRKNEMTTTD [R17K], the protein stability index was 3.62.
EILGCPLPDPNNYYHRNNEMTTTD [R17N] gave a protein stability index of 4.04.
For EILGCPLPDPNNYYHRRNEMTTHD [T23H], the protein stability index was 3.6.
EILGCPLPDPNNYYHRRNEMTTSD [T23S] gave a protein stability index of 3.39.
Variant EILGCPLPDPNNYYHRRNEMTTQD [T23Q] has a protein stability index of 3.54.
